Results from the supplement of paper PMC10567573.
± gives the standard deviation.

Assay: protein stability index of a GFP-peptide fusion (GPS, HEK-293T) (PSI 1-6); higher = more stable
Details: c terminus: a fixed tail appended
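Also: 24-mer peptide tiles fused after GFP, lentivirally expressed, FACS-sorted into six equal bins by GFP/DsRed ratio, decoded by Illumina sequencing, PSI is the read-weighted mean bin number.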

Sequence | protein stability index (treatment: DMSO) | protein stability index (treatment: MLN4924 1 uM, 8 h)
NIYENGDVCISILHPPVDDPQSGE [UBE2R2] | 4.37 ± 0.1 | 4.55 ± 0.087
RDKARLLREKVEFLRSLRQMKQKV [NFE2L1] | 2.73 ± 0.15 | 3.14 ± 0.37
YSFRKLPDTQLLKFQLNKYTGEIK [PCDHGA10] | 2.39 ± 0.37 | 2.54 ± 0.3
RKRIHDSRVAGFNPALQLILTRTD [TOR1AIP2] | 4.2 ± 0.17 | 4.18 ± 0.19
IVHVEKEEVPEGMEEAAVASVVLP [BCL2L13] | 5.11 ± 0.16 | 5.07 ± 0.19
RIIDKPRVIEVLPRGATAAVLAPD [SEPHS2] | 3.88 ± 0.23 | 4.08 ± 0.068
LSPEVLRKDPYGKPVDMWACGVIL [CAMK2D] | 2.74 ± 0.55 | 2.14 ± 0.71
RFALIPAPELVERVQSVDFMRTDP [KLHL14] | 3.26 ± 0.17 | 3.26 ± 0.18
KITKVMDVRLDREHRVAGIFPRLS [CLPTM1] | 2.69 ± 0.17 | 2.7 ± 0.36
LFPGRVSVDLMLGLPAQQVGPWLG [RSAD1] | 2.41 ± 0.86 | 2.32 ± 0.9
ATLKGPDSHYGTKGLKKVVHETPA [BTBD1] | 4.21 ± 0.34 | 4.543 ± 0.04
SLQPQQQQQRQRPPRPPPRGTPPR [N4BP2L1] | 3.81 ± 0.17 | 4.16 ± 0.2
HEDLLTRIGEATKPDGTVEQIGHI [NET1] | 4.95 ± 0.13 | 4.93 ± 0.17
ANDGDYWRLLNPGEYVVTAKAEGF [CPXM2] | 2.81 ± 0.35 | 2.87 ± 0.081
RLALEKVPKVGQRFNRIGLPPKVG [PI4K2A] | 3.23 ± 0.3 | 3.21 ± 0.097
TPYLKETLNSIWNVEDHINPKLPN [POMT2] | 3.37 ± 0.28 | 3.45 ± 0.2
IQMVNESLGYVRSQFLKLKTSVEK [CD207] | 3.34 ± 0.21 | 3.29 ± 0.13
ISVNGDVITIKSESTFKNTEISFI [FABP4] | 2.75 ± 1.1 | 2.11 ± 0.16
SSKFYDLFLMDLSEGELGGPSEPG [RHOBTB2] | 3.19 ± 0.2 | 3.25 ± 0.34
SPKELKRRNSSSSMSSRLSIYDNV [DLC1] | 3.92 ± 0.32 | 3.94 ± 0.39
HGLWDSLVYDVEVKSHLLDYVMTT [TRIP13] | 2.28 ± 0.32 | 2.2 ± 0.34
PGQEKGSALEGRADTTTGSAAGPP [EHMT1] | 5.39 ± 0.22 | 5.48 ± 0.17

Sequence | protein stability index (treatment: DMSO) | protein stability index (treatment: MLN4924 1 uM, 8 h)
RDHSVRVLISNHVTPFDHNIVNLL [AUP1] | 2.1 ± 0.16 | 2.12 ± 0.31
CNCALEELRLVFGPLGDQLHAQLR [ELF3] | 2.46 ± 0.86 | 2.33 ± 0.38
CQPRNLDKERAVLLQRRKRENMSD [KMT2E] | 4.32 ± 0.13 | 4.29 ± 0.12
RGYWGDIATGPFVAFGIEADDESL [DNAAF3] | 3.65 ± 0.22 | 3.65 ± 0.43
KKPPVTFAEKGELRKSIFSESRKP [TRIM29] | 4.13 ± 0.23 | 4.19 ± 0.19
IPVLMALSWFILHARYRVIHFIAV [SLC35F2] | 3.09 ± 0.43 | 3.25 ± 0.093
CLMGLAETPGCATLLPASLFVNSH [DCAF4] | 2.35 ± 0.3 | 2.35 ± 0.34
ENRALQQLLEQKQAYWAQAEDTAA [CBY2] | 4.3 ± 0.21 | 4.4 ± 0.21
GHQPGTGPGDGPPEIAQNFSAPDP [SMTNL2] | 5.23 ± 0.098 | 5.46 ± 0.15
IRLVCSRGNRLKTTSWGLLSLGAL [SCNN1D] | 3.2 ± 0.45 | 3.07 ± 0.54
NEFLCTLQKKLDNLQCLYCEKTFR [ZNF277] | 2 ± 0.4 | 2.38 ± 0.32
RFLLKETLNQLQSLQNSLECAMET [NECAB1] | 2.29 ± 0.4 | 2.31 ± 0.41
RFTAESYTVLGDTLIDGGEHYWEV [FSD1] | 2.23 ± 0.3 | 2.5 ± 0.43
ASVINNMLAEIFCQTGGVEDQEEW [ZBED1] | 3.31 ± 0.31 | 3.89 ± 0.33
NPNGGSFEEVLSSTAHASAQSLAG [TPD52L1] | 4.76 ± 0.12 | 4.9 ± 0.11
APAQRATRGFLRSPSSDLDTDAEG [RETREG3] | 5.44 ± 0.13 | 5.14 ± 0.18
WQLLLFLCATHFGEPLEKVASVGN [KISS1] | 2.78 ± 1.2 | 2.29 ± 0.35
TTTRHKRTANPSKTIDLGAAAHYT [CLINT1] | 3.94 ± 0.2 | 4.06 ± 0.16
LRGLCRPLRPLLGFRESDSAKPAS [C6orf223] | 3.31 ± 0.32 | 3.44 ± 0.23
WEFKLSDPDEVARRWGKRKNKPKM [ETS1] | 3.65 ± 0.27 | 3.67 ± 0.067
AQNNCPAIMNALIEAGAHMDATNA [FEM1A] | 4.46 ± 0.23 | 4.49 ± 0.079
LHELSSRVEASHLTTSQERELGIR [FBF1] | 4.46 ± 0.17 | 4.36 ± 0.25
